Experimental data as given in US20040209800A1, “Use of mx gtpases in the prognosis and treatment of cancer” (priority 2001, published 2004).
Substitutions are numbered along the chain they refer to. “Also recorded” adds a separate entry of the source.

B1: MxA: full-length human MxA GTPase, 78 kDa, expressed from a transfected plasmid in PC-3M or LOX cells (protein)
chain: MVVSEVDIAKADPAAASHPLLLNGDATVAQKNPGSVAENNLCSQYEEKVRPCIDLIDSLRALGVEQDLALPAIAVIGDQSSGKSSVLEALSGVALPRGSGIVTRCPLVLKLKKLVNEDKWRGKVSYQDYEIEISDASEVEKEINKAQNAIAGEGMGISHELITLEISSRDVPDLTLIDLPGITRVAVGNQPADIGYKIKTLIKKYIQRQETISLVVVPSNVDIATTEALSMAQEVDPEGDRTIGILTKPDLVDKGTEDKVVDVVRNLVFHLKKGYMIVKCRGQQEIQDQLSLSEALQREKIFFENHPYFRDLLEEGKATVPCLAEKLTSELITHICKSLPLLENQIKETHQRITEELQKYGVDIPEDENEKMFFLIDKVNAFNQDITALMQGEETVGEEDIRLFTRLRHEFHKWSTIIENNFQEGHKILSRKIQKFENQYRGRELPGFVNYRTFETIVKQQIKALEEPAVDMLHTVTDMVRLAFTDVSIKNFEEFFNLHRTAKSKIEDIRAEQEREGEKLIRLHFQMEQIVYCQDQVYRGALQKVREKELEEEKKKKSWDFGAFQSSSATDSSMEEIFQHLMAYHQEASKRISSHIPLIIQFFMLQTYGQQLQKAMLQLLQDKDTYSWLLKERSDTSDKRKFLKERLARLTQARRRLAQFPG
B2: T103 mutant MxA: FLAG-tagged MxA with threonine 103 mutated to alanine; the mutation inactivates GTPase activity (protein)
chain: B1 chain with T103A
modifications: left off: small tags and cut ends

What was measured:
[1] = tested on: PC-3M cells; experiment: MxA protein induction, immunohistochemistry and Western blot; type: cell-based, human; conditions: 1000 IU of IFN-α/mL, 24 hours
Experimental: (§1) PC-3 and PC-3M test cells also were treated with recombinant IFN-α (Novartis Pharma—Basel, Switzerland) (1000 IU of IFN-α/mL), grown for 24 hours, fixed, permeabilized, and subjected to immunohistochemical analysis using anti-MxA antibody and DAPI nuclear counterstaining to locate individual cells. […] Western blotting with […] using 100 μg cell lysates confirmed IFN-α-induced increase in MxA expression in both cell lines.

[2] = tested on: PC-3 cells; experiment: as above; type: cell-based, human; conditions: 1000 IU of IFN-α/mL, 24 hours
Experimental: as §1

[3] = tested on: LOX cells; experiment: In vitro invasion, BIOCOAT Matrigel invasion chamber; type: cell-based, human; conditions: stably transfected LOX cells vs β-gal control LOX cells
[4] = tested on: PC-3M cells; experiment: Primary tumor growth assay; type: in vivo, beige/SCID mice; conditions: 2×10^6 PC3M-MxA cells subcutaneously; β-gal control 29.8±3.4 days
Experimental: The effect of MxA expression on tumor growth in vivo was first tested using a primary tumor growth assay. 2×10^6 recombinant PC-3M cells expressing […] MxA (PC3M-MxA) or 2×10^6 recombinant PC-3M-β-gal cells (expressing β-gal) were injected subcutaneously into 30 beige/SCID mice (Charles River Laboratories, Wilmington, Mass.), and the time to formation of a 2-cm subcutaneous tumor (as measured using Vernier calipers) was determined by monitoring the mice at least three times weekly for evidence of tumor development, quantification of tumor size, and evidence of tumor/metastasis-associated morbidity. Subcutaneous tumor size was quantified using Vernier Calipers. Criteria for sacrifice included tumor growth to greater than 2.0 cm, ill thrift, anorexia, dehydration, decreased activity and grooming behavior, and dyspnea.

[5] = tested on: insoluble cytoskeletal matrix; experiment: Cytoskeletal extraction and anti-FLAG immunological analysis; type: cell-based; conditions: transfected LOX cells, anti-FLAG antibody
Experimental: MxA-LOX cells and T103 MxA-LOX cells were subjected to immunological analysis using known techniques (see Choi et al., J. Biol. Chem., 272:28479-28484 (1997)) with an anti-FLAG antibody after cytoskeletal extraction, which removed all the soluble proteins, leaving only cytoskeleton-associated proteins. Cytoskeletal preparations were prepared by permeabilizing the cells with 1% Triton X-100 in PHEM buffer (60 mM piperazine-N-N′-bis(2-ethane-sulfonic acid) (PIPES; pH 6.9), 25 mM N-2-hydroxyethlypiperazine-N′-2-ethanesulfonic acid (HEPES), 2 mM MgCl2, and 10 mM ethylene glycol-bis(b-aminoethyl ether)-N,N,N′N′-tetraacetic acid (EGTA, pH 6.9)) for 2 minutes, fixing the cells with 3.7% formaldehyde for 10 minutes at room temperature (see Hartwig, J. Cell Biol. 118:1421-1442 (1992)). Fixed cells were incubated with appropriate primary and secondary antibodies and the nuclei counterstained with 4,6-daimidino-2-phenylinodole (DAPI). Cells were visualized with a Zeiss Axiophot microscope and images were captured using an Optronics CCD camera.
To further investigate the relationship between MxA and microtubules, soluble proteins were extracted from the LOX cells, using standard techniques, and the insoluble cytoskeletal matrix was examined for associated proteins.

[6] = tested on: PC-3M cells; experiment: Experimental hepatic metastasis assay; type: in vivo, beige/SCID mice; conditions: 2×10^6 PC3M-MxA cells into the spleen; β-gal control 23.3±3.3 days
Experimental: The in vivo effects of MxA expression on tumor growth and metastatic potential was also tested using an experimental hepatic metastasis assay. Briefly, 2×10^6 cells from the PC3M-MxA cell line and the PC-3M-β-gal cell line were injected into the spleens of beige/SCID mice. Mice were monitored at least three times weekly for evidence of tumor development, quantification of tumor size, and evidence of tumor and/or metastasis-associated morbidity. Animal survival time was determined, and mean survival time was compared between the two treatment groups.

[7] = tested on: actin; experiment: Coimmunoprecipitation with actin in PC-3 cells; type: binding, human; conditions: endogenous MxA in PC-3 cells
Experimental: (§2) Immunoprecipitation was performed by known techniques (Bang et al., Proc. Natl. Acad. Sci. USA 91:5330-5334 (1994)). Briefly, cell lysates were obtained and incubated with the indicated antibodies overnight at 4° C. The immunocomplex was immobilized on protein A/G-Sepharose (Santa Cruz Biotechnologies), resolved on SDS-polyacrylamide gels, transferred to nitrocellulose filters, and immunoblotted with the indicated antibodies.

[8] = tested on: PC-3M cells; experiment: Time-lapse video microscopy of cell motility; type: cell-based, human; conditions: PC-3M-MxA vs PC-3M-β-gal cells, 250 minute recording
Experimental: Using time-lapse video microscopy, PC-3M cells stably transfected with an MxA construct (as described in Example 2) were observed and compared to control PC-3M-β-gal cells. Specifically, PC-3M-βgal and PC-3M-MxA cells were seeded in 25 cm^2 flasks and cultured for 24 hours. After 24 hours, the flasks were filled with pre-warmed complete medium and cell motility was observed using by phase-contrast microscopy using an Optronics cooled CCD camera mounted on a Leica DMIRB inverted microscope. During observation, the cells were maintained at 37° C. using an ASI 400 Air Stream Incubator (Nevtek—Burnsville, Va.). Time-lapse video microscopy (250 minute recording converted into 1 minute of playing time) was converted into QuickTime movies using Adobe Premier 5.1.

[9] = tested on: tubulin; experiment: Coimmunoprecipitation with anti-α-tubulin and anti-MxA antibodies; type: binding; conditions: transfected LOX cell lysates
Experimental: as §2
Using the LOX cells stably transfected with the […] MxA construct, as described in the preceding Examples, whole cell lysates were prepared and immunoprecipitated with anti-α-tubulin antibodies, anti-MxA antibodies, and protein A/protein G-coated Sepharose beads alone, and the resulting compositions were subjected to Western blotting with anti-FLAG antibody (Sigma).

[10] = tested on: PC-3M cells; experiment: In vitro motility, migration through 8-μm pore membrane; type: cell-based, human; conditions: 24 hours
Experimental: The PC-3M cells of Example 1 were transfected with a pCIneo plasmid (Promega, Madison, Wis.) expressing full-length MxA or a plasmid constructed from pHβ Apr-1 comprising an MxA sequence operably linked to a CMV promoter, and two stable cell lines were selected. PC-3M cells stably transfected with a plasmid expressing β-galactosidase (β-gal) were used as a control. MXA expression was not detected in the PC-3M β-gal cells.
The motility of PC-3M transfectants in vitro was tested by measuring the ability of the cells to migrate through pores in a membrane. Briefly, FALCON cell culture inserts with an 8-μm pore-size PET membrane (Fisher Scientific, Franklin Lake, N.J.) were placed into the wells of a 24-well plate, each well containing 0.5 ml of complete medium (RPMI 1640 with 10% FBS, 1% antimycotic-antibiotic solution, and 500 μg mL^−1 G418). Control and MxA-transfected cells were trypsinized, suspended at 1.5×10^5 cells/ml in complete medium, and 350μl of the cell suspension was added to each insert. Following incubation for 24 hours at 37° C., cells from the upper surface of the membrane were removed by scrubbing with a cotton swab. Cells that had migrated through the insert and adhered to the bottom of the membrane were Wright stained using the CAMCO Quik Stain kit (Fisher Scientific), visualized using a Zeiss Axiophot microscope or Leica DMIRB microscope, and counted.

Molecule | level of MxA protein after exposure to IFN-α [1] | level of MxA protein after exposure to IFN-α [2] | in vitro invasive activity, % of control cells [3] | time to develop a 2-cm tumor mass [4] | association with insoluble cytoskeletal matrix after cytoskeletal extraction [5] | survival [6] | co-immunoprecipitation with actin [7] | mobility of PC-3M cells by visual observation [8] | association with tubulin by coimmunoprecipitation [9] | motility, % of the β-gal control cells ([10]; PC-3M stably expressing MxA, lowest level seen) | motility, % lower than the β-gal control cells ([10]; all MxA-expressing PC-3M cells, both cases tested)
IFN-α | became detectable | increased substantially | – | – | – | – | – | – | – | – | –
B1 | – | – | 15.1% | 46.8 ± 9.9 days | remained bound to the matrix | 54.3 ± 11.2 days | did not co-immunoprecipitate | significantly inhibited | associated with cell microtubules and particularly tubulin; also recorded: detected in the complex with tubulin | 24.3% | at least 22.4%
B2 | – | – | 119% | – | undetectable; also recorded: washed out of the insoluble preparation | – | – | – | did not associate | – | –
